Assay: soluble fraction after stress (log2 fold change); higher = more stays soluble; pooled small domains, quantitative proteomics
Conditions: stress: 50 degC
Procedure, shortened: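 Custom libraries of small protein domains were pooled and measured in a high-throughput format, with quantitative proteomics as the read-out. Each library was stressed at 50°C. The value is the log2 fold change in the amount of each protein that stays soluble after stress, used as a measure of aggregation propensity; higher values mean more of the protein stays soluble.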

HMGTSMDPPVIIVSDGKLIQKGLEVSGLKKQWLYDLIDRKHMKISDIFLLTADKTGKYNLIKRS
soluble fraction (log2): 0.0904

HMSIITLFQEINAAVAEATGGRVPESVVQNFILGKDVVIPEDVKEIIISKLKAFATDIEGMLEESGFD
soluble fraction (log2): -0.909

HMGRSYTIKSGDTLWAIATRYYGNGAQYSKIYNANKGTIESVAKSRGFRSSQNGHWIFPGTSITI
soluble fraction (log2): -0.207

HMAKIKVFELKNQINSLIKNKIESKDIIDFIETNFGVKKSHSSALEENEANFIKNYFVHADKA
soluble fraction (log2): 0.195

HMAEAETVKFVGNSLLLVSGAAKGERLSVYTVGGQHVLSADATKPVDVAALHSGVYVVRTTNGVITKIVK
soluble fraction (log2): -0.749

HMDTLTRAMVWTIIARAEGVDTTGGATWYAKAQEWVTAKGISDGENPNAAITRQELVTMLYRLAGEPAV
soluble fraction (log2): -2.78

HMSAGISVADVTNRTYDEGYNTLTAQHLLVNKVYEANETIPLDTIIRTDPVAGTKVPDNTSITVYVSSGK
soluble fraction (log2): 0.000832

HMKHRFVVGEVLSIGKLQHEITLKTAQGERKFQLDKQDLPASIQDGAKVRAELNEAGRVIDVHPLK
soluble fraction (log2): 0.355

HMEKMLENIDLKAAVEALPEREKKVILLRYYRGMTQDAAAKVMKVSQVQISRIEKRAIEILREKL
soluble fraction (log2): -1.52

HMTVMTGSQRRKKILELMRDAKEPLSGGALGKETGVSRHVVVQDIALLRTQGYPIVATARGYIINE
soluble fraction (log2): -0.212

HMSSWEDNFSYWIRNVAETLDKDLLNVANSKLEKIIINAALDQTNGKKNEAAILLGLGRNTLAKKIKELG
soluble fraction (log2): -0.858

HMEDWTPERFVGAFVSGGPALRDEILLAATKDLSHAQATRLLKLAEARGLVHRSQPGPSERVRFVVARK
soluble fraction (log2): -0.258

HMRTDTIINSGGLKINPEEVENEILKSLGDNNFFIDKIKNDKFGEEIILIALKKIKINLLIESLNLI
soluble fraction (log2): 0.0394

HMDEWDDGDKPKLKITLYADDDYYFASGFSKSSVSLSGSDGTVTSVSRSSSDTLIVYVTLDALD
soluble fraction (log2): -0.0264

HMKSNIGENIRQLREKREMSVERVARMLEVKPATVIGWESGRELPEPAELGLLAKLFDVTVEELN
soluble fraction (log2): 0.106

HMRSNQKVSQIAISQVLPGMVTAKNVYSRNDQLILNRETTLDSTKIAKIMFYAIESIYVYEPE
soluble fraction (log2): -1.9

HMIGILSDREAEILALLDEGLTNKAIGRRLNLAEPTVKFHLKNLYAKLGVGRRQLAVNVAKGSGLLNSD
soluble fraction (log2): -0.699

HMTIGPALAIGGNKVEMTQQGKIQVTNPQGKIKTLSQDEFKKQLVKNADKIEAGQDFEFKKD
soluble fraction (log2): 0.263

HMPEKKKYGDFVSMTEEEYGKLVSEYGQEAAKRMVEILNNYKGATGKPYKSDYLAILNWVVKRIKEE
soluble fraction (log2): 0.0441

HMEAQFIDINDVRIGTYVYVDLGWIKHPFALNSFKITSRDQIDTLIKLGVKRIRWSPEKSDS
soluble fraction (log2): -1.3

HMRVESVGDRIRRLRKSLGLTQVKLAQMLGIKAPSVVQWESDKTNLSGENLLNAAKLFGVTPDYILYGG
soluble fraction (log2): -0.0657

HMADTIEVVVQVNGKVRAKISTSPEVFADSTKLQELALADANVQKFIAGQTIRKVIIPKGTKLLNIV
soluble fraction (log2): -0.227

HMAEWIYGKNVVKQSIEEGMVLKLILQRKEDPLFVLAQEKQIPVEILDRHKMTSLVKSDRHQGVAAQI
soluble fraction (log2): -0.477

HMVINKRELNVLSIYSRGSEKRAIILFPTGQTKLVKVGDTLNGGRVAAIGTTEIRYIKGGNNLVLKIPQ
soluble fraction (log2): -2.41

HMKISDTITEKILTDNNFSMELAKKIGIQQGSLLSSIRRNRDSRILRLWEAVMFYKEQGYTEEEIFTDY
soluble fraction (log2): -1.27

HMFDGRSDAEKTLDLIKTAIDNILKGGAIQEYKIGTRTAKKYDMAELQVLKGEYAAMVAREKQAETMA
soluble fraction (log2): -0.132

HMRGQLADLWLPREQARRAAEIVAARPVPLGSVKTWIARGKLAPRKTGTGPALYRVGALVSLLAKS
soluble fraction (log2): -1.67

HMRSREGVRWIIRERIMEELQERHHMDDGELLEMIDRSIGEMGQEIFLPLKERIWLRGSLFDSFR
soluble fraction (log2): -3.1

HMGIKDRIVYIMEKEKLSIPLFAKKIGIGPSTLLHIIRGKNAPSLQVVQAIHKAYPDIDLNWLI
soluble fraction (log2): -1.08

HMEPELLTTKQVASVMNIGEERARAILLSRGVQPVSLPWGKERKTLRWSRRAVMTVIDTLHAEAQAKAGV
soluble fraction (log2): -0.582

HMPGLSQAEAQSLLIAYLAQQGRTLELIPLGQSGDVWRFSGRESDGTVVSFFMVSRTDGTISEVPVPP
soluble fraction (log2): -0.62

HMKALRNQDVVVGKPLAMAVYDQHGVLLLGRGHVVISESQRQQLLERGFSIDAEQLGRLRAAIEATQRV
soluble fraction (log2): -0.378

HMYRLSPSWRIVERDDGFEIYGGDDARFQLDPSPLVSRLAAGDAVTRDGLDPTGAIEFEQLLSAGMIRPEI
soluble fraction (log2): -0.124

HMQISLAAARVNAGLTQEEVAKAMKVGKQTIVSWEKGNSEPKMSQSRELSELYKIPLDYIFYP
soluble fraction (log2): -0.322

HMEHQLLHMEKTIFEEIADDYPQLNHTKIRNVLAAFLFTNDDVFKRIADLSGGERGRVSLAKLMLSDA
soluble fraction (log2): -0.188

HMENDYTQAQFVQDLDSGVVREVIIIPNREAPTGYARVVFGDVVRELYATDIREVEALAREHGYEPTVED
soluble fraction (log2): 0.209

HMGISGSDLEKMIRNILVNNTDVVETIKSGQDKKGKKQKFLQGLIMKEARGQTDPREAASLLAKLLE
soluble fraction (log2): -0.0715

HMGKVNGFEITVIEGKNVVGSITPRQAIAKNSDGVIQLRGEQSFSATDQVLINELAFYIKSNNLKA
soluble fraction (log2): -0.949

HMDRYVDEEKRFYWRSGEAYLNFSKYKDRSLAEVATVDPGFLRWMMEADFSPETKQIVERALEGEFPQKK
soluble fraction (log2): 0.123

HMRPKAIFVDVDDTLVRSVGQTRIPMPAVIAHIRRLHDAGHQLYLWSSGGADYARASAEELGIGQYFQAFL
soluble fraction (log2): -0.26

HMRLARPLTPTEERVLRLLASDMSNAKIGEVLGIRLPTVKSHVSHIMQKLGVTSRAKARTAAQQLGI
soluble fraction (log2): -0.887

HMDNLATRILKELNNNDGFLPLSDKSQPEAIYQAFGISKKSYKTAIGTLYKKRLITISENGIQLTD
soluble fraction (log2): -0.688

HMADPRFHSEIMLSKIESLLSGKADSDVSNYSIQGRSLTKMSLQELMDARESYDGLVKSEKAKLDAKY
soluble fraction (log2): 0.0495

HMFDGYQWLKRDIIRGVYQPEEKLRMSLLTNRYGLGVGPLREALSQLVAEHLVTVVSQKGYRVAPM
soluble fraction (log2): -0.112

HMPNLAAAIGARVTIRLREASGGFRDIVGTLQRFGDGVNELLNSKGQIISFSEDEIAIWREIK
soluble fraction (log2): -0.816

HMNKDWQDEVALQRYTMITPLLSEDLDNAKRIAMREKIAQDNLTTARSLYRYEKAYRENGFQGLRPTD
soluble fraction (log2): -0.146

HMAEVHVDGVTYQFSNPEQAVKFARKIAKELGLKVEVHGETVHVK
soluble fraction (log2): -0.156

HMLSAGTTEQRLAMLQYQWEKQSETYSALGPNNGVVTLGQIRNTMAKIAELAGFKDAAQFWMPVPMDYDV
soluble fraction (log2): -0.323

HMELKFIGEAVNNPKRPLIAILGGAKVSDKIGVIENLLTKADKILIGGAMMFTFLKAEGKNIGTSLVED
soluble fraction (log2): 0.0616

HMELNILELKSKERKISLEDHLYIKSFNFDNETNEYFYRLAFNSSKDLKNFKATINNDKTISIINFEI
soluble fraction (log2): -3.16

HMQITQSSEPIDVSALRLGMFIHLEGGWLSHPFPRSSFKITSEDQLVTLRSLGISVLRWSPELSDPE
soluble fraction (log2): -0.834

HMTPVIINESGGDQDTRIEGLNDNNLLYVDASTDRVGVGVATPTQKLDVNGDVAISGGSLYLSQ
soluble fraction (log2): -0.00396

HMSVEVPNLIGKTLDQVDIDLKSLDLSFVILDSARYNSSFKPLSVIDHQPISGAKVKVNRKIYLTINPS
soluble fraction (log2): -0.445

HMNEISFYPNPAKESLTVKGLSEITSYSISDINGKLIQYGTTFDRINLEKLTKGFYFLTIGNTISKKLIV
soluble fraction (log2): -0.39

HMAEKVIVVADSITVGELAEKLNLPVTNLIGELFKNGIVSTINQRIDFETASIIVEELGLDVELERK
soluble fraction (log2): -0.0299

HMRAKPLILLDGREISAEELFSLDKNSIKSIEVLKDETALAQYGEKAKNGVVLVVTKSAAAS
soluble fraction (log2): 0.246

HMTIKTAFPAEDLAKPDNFKSLLYYFGLLTIRGTKWGSTLLAIPNLTVREQLYSYLVEAYRSADL
soluble fraction (log2): 0.291

HMEGRHFRILYILLNNERVTAPELAEEFGVSVRTIYRDIDTMSAAGIPIYMQGGRKGGIYLLEGY
soluble fraction (log2): -1.16

HMDHVEDRMVLEVVLKKLTEEERRIVMLHAVSGLKHREIAKALDIPLSTVLSKYKRTLKKLEAYLMEME
soluble fraction (log2): -1.78

HMQYALEDDLDSAIKLLTGKGLSGTVAWGWSDTYINVGKKSYSMEFIAKMLLRLGEGSRVTIQVDPA
soluble fraction (log2): -4.68

HMEQQSIYLENRERMTINQVIDVDAFDEETLWANLKEGAVEISGSGLHIEKLDLAEGVLIVSGIIRAFAYV
soluble fraction (log2): -0.647

HMVGLTDLQRNVLVQIARGKSRQLISRTLKVTPAEISAALKVAQRRYRVASSTEVIVQALYDKTLSFHEIM
soluble fraction (log2): -0.625

HMAVGTASNLIGKDIEAYAPIDGSQSSDDTKTISGKVESVHIKDGVVYMNVKDSQSENIIEVEYGALIKVN
soluble fraction (log2): -0.498

HMNPESRRSELIDAATKLFFSRGYTATSIRDILDAVDDRTASPSVFYYYFESKEAIYQAVLQRYTD
soluble fraction (log2): -2.03

HMDAIDQDGNHMTFKRWGEQLQEAFQALEAYDTDKAKTILNELIKFPIDSDLNNALKGILSNIDEMMA
soluble fraction (log2): -0.447

HMYGHKLDSYESYVVSELRRWPFLSAPQIHDRLKEHFSDLPLVTPKTVFNFVNRLRLTHSLPKE
soluble fraction (log2): -3.13

HMFNIIARQEIDEILYEYKIENSEDYKNRDPEELAEIYENIKTVQENHDLSDDDVEELLKSIFSDY
soluble fraction (log2): -1.02

HMEQGDTQQEIREKILNLLADGERHMITELKNIRTDQPIDDDKIVGKTLKTLLDEEEVYMDGSYIQLNG
soluble fraction (log2): 0.259

HMTTTTTYITNTDAVNIRQQATTSSTSLGKLAKNTILSVKKKSGDWYQITYKKQTAYIHASLVDKKTAKVT
soluble fraction (log2): -0.556

HMKKDRKKMLKEGIVLFEKILRGMELSPTSEPLKKVLTSFNIQNKEDLYVKLGAGVISSEEVIKELKKK
soluble fraction (log2): 0.183

HMVFSKEELLFNSDSLLSLYPNDNKLLETILSEKIDHAVKNNDMSMYKEILVIDPKNPLANYHLLM
soluble fraction (log2): 0.0579

HMGETYTIPDVRGYTLEDAMELPEIKENGFTIIEGRQIVDADVPVGQIISQTPEAESIAKSNVKEITVNIS
soluble fraction (log2): 0.0323

HMEEQQIQLIQMKMEKDHKYVGKKISELRIKNMLIVLIKRGDEDIIPRAEVKIKEGDILVLSAQSYEG
soluble fraction (log2): -0.00468

HMLDRNKLNELDAYIESFEDKPSHLIMILHRAQGLFGYLPKELQIYVAEKTGVPAAKVYGVVTFYSFFTMK
soluble fraction (log2): -1.4

HMGPNYYDILEIPTDASPSEITQAFRKKALEWHPDKNPNNLEEATSRFIEIVEAYRVLSSKDSKLQYDTG
soluble fraction (log2): 0.0242

HMSAEVEVPDVVGRQVALAVQLIETKKLRVNVAETYDAKVPPGQVISQSPEAGMKVKEERVITIYVSR
soluble fraction (log2): -0.167
